Laboratory results taken from article PMC4108065, “Inflammation and pancreatic cancer: molecular and functional interactions between S100A8, S100A9, NT-S100A8 and TGFβ1” (Cell Communication and Signaling : CCS, 2014).

What was measured:
[1] = S100A8 proteolysis assay in Capan1 conditioned media (MALDI-TOF/MS); format: in vitro ADME, human; settings: 3 μM S100A8, Capan1 conditioned medium, 24 hours at 37°C, MALDI-TOF/MS low molecular weight spectra
Description: To obtain BxPC3 and Capan1 conditioned media (CM), 400,000 cells were cultured (75 cm^2 flasks) for 96 hours in RPMI supplemented with 1% FCS and 0.1% gentamycin. In parallel, Ukrain (Nowicky Pharma, Wien, Austria) treated Capan1 CM were obtained as above, the difference being that Ukrain was added 24 hours after cells had been seeded at the final concentration of 5 μM. Complete culture media maintained in a cell culture incubator for 96 hours (negative control), Capan1 and Ukrain-treated Capan1 CM were centrifuged at 1,500 rpm for 10 min, and then immediately mixed with 3 μM S100A8 or 2.5 μM S100A9 (ProSpec-Tany TechnoGene, Ness Ziona, Israel) and maintained at 37°C overnight before MALDI-TOF/MS analyses. Complete culture media, BxPC3 and Capan1 CM, treated as described above, were incubated at 37°C with 200 μM of the S100A8 1–19 N-terminal aminoacid sequence (NT-S100A8) (Primm, Milano, Italy) for 1, 2, 3, 4, 5, 6, 12 and 24 hours before MALDI-TOF/MS analyses. At least three independent sets of experiments were performed for both assays.
Cell culture media were first desalted and purified by ZipTip C18 pipette tips, following the procedure described in the ZipTip user’s guide. […]

[2] = tested on: BxPC3-SMAD4+ IκBα and Akt phosphorylation; experiment: Signaling western blot in BxPC3-SMAD4+ cells; format: cell-based, human; settings: BxPC3-SMAD4+ vs BxPC3, 10 min, 10 nM S100A8
Description: The pancreatic cancer cell lines used were: Panc1 and Suit2, donated by Prof Aldo Scarpa (University of Verona, Italy); BxPC3, from Dr Andrea Galli (University of Florence, Italy); MiaPaCa2, Capan1 and the human embryonic kidney Hek293 cell lines, supplied by the American Type Culture Collection (Manassas, VA, USA). BxPC3, Capan1 and Panc1 were cultured in RPMI (Gibco/BRL, Gaithhersburg, MD, USA) supplemented with 10% (BxPC3 and Panc1) and 20% (Capan1) fetal calf serum (FCS) (Gibco/BRL), 1% L-glutamine (Gibco/BRL) and 0.1% gentamycin (Gibco/BRL). MiaPaCa2 and Hek293 were cultured in DMEM (Gibco/BRL) supplemented with 10% FCS, 2% L-glutamine and 0.1% Gentamycin. BxPC3 cells were transfected with the expression vector pBK-cytomegalovirus (CMV)-SMAD4/DPC4, as previously described. One SMAD4/DPC4-expressing clone (BxPC3-SMAD4+) was used for the experiments. Smad4 silencing of MiaPaCa2 cells was performed as previously described.
Five million cells were seeded in Petri dishes (ø 10 cm) and cultured for 24 hours in their respective complete media prior to starting the experiments. […] Lysates were centrifuged for 10 min at 14,000 rpm at 4°C and, in the supernatants, total proteins were measured using the Bio-Rad protein assay (Bio-Rad Laboratories, Milano, Italy). […]

Question: With “S100A8: inflammatory calcium binding protein S100A8 (ProSpec-Tany TechnoGene)” as the substance, how does the “fragmentation of S100A8 in conditioned medium” value [1] read?
Answer: Its value is “a new peptide was found at 2280 m/z”.

Question: And the “IκBα phosphorylation in Smad4 expressing BxPC3” value [2]?
Answer: The value was “reduced IκBα phosphorylation”.
